The values below come from publication PMC11286949, “Structural basis of tRNA recognition by the widespread OB fold”.

Common to all, as to assay: ITC; ITC (Arc1p): 25 mM Tris-HCl pH 7.4, 150 mM NaCl, 2 mM MgCl2, 25 °C. FP and competition FP: 25 mM Tris-HCl pH 7.5, 150 mM NaCl (Arc1p) or 50 mM NaCl (Trbp111), 2 mM MgCl2, room temperature
Common to all, as to conditions: protein: recombinant; tags: His-MBP removed; tRNA fold

Series [1] deals with T1, Arc1p dN R274A (Saccharomyces cerevisiae, UniProt P46672 132-376, R274A;del1-131).
T1 sequence: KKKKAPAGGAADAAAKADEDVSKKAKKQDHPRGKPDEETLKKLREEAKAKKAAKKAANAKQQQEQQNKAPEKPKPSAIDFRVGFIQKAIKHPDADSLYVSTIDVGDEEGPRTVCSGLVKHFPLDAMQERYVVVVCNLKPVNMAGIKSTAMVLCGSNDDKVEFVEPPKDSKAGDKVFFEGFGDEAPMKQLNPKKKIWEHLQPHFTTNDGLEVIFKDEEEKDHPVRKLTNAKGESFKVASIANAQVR

Series [2] addresses T2, Arc1p dN S278A/M281A (Saccharomyces cerevisiae, UniProt P46672 132-376, S278A;M281A;del1-131).
T2 sequence: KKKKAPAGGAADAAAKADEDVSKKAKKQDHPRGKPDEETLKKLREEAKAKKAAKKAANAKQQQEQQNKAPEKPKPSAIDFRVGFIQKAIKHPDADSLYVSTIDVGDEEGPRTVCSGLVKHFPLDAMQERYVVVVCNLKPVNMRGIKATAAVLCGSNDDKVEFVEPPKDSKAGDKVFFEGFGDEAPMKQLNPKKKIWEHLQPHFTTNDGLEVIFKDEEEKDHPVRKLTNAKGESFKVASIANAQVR

Series [3] addresses T3, Arc1p dN S278A (Saccharomyces cerevisiae, UniProt P46672 132-376, S278A;del1-131).
T3 sequence: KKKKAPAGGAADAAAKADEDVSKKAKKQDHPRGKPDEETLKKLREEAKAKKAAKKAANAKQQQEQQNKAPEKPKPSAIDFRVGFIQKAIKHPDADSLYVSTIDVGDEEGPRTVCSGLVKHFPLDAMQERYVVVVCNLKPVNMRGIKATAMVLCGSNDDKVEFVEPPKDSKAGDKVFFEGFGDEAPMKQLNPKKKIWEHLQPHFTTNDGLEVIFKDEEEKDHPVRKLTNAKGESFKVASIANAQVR

Series [4] addresses T4, Arc1p dN M281A (Saccharomyces cerevisiae, UniProt P46672 132-376, M281A;del1-131).
T4 sequence: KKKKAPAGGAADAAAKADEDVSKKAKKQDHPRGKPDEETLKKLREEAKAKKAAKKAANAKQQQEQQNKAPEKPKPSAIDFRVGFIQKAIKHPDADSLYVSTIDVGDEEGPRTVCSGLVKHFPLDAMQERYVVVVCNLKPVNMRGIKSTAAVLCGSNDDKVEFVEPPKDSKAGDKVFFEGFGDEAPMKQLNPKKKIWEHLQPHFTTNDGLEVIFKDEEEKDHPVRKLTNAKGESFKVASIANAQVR

The target in series [5] is T5, Arc1p (Saccharomyces cerevisiae, UniProt P46672 1-376).
T5 sequence: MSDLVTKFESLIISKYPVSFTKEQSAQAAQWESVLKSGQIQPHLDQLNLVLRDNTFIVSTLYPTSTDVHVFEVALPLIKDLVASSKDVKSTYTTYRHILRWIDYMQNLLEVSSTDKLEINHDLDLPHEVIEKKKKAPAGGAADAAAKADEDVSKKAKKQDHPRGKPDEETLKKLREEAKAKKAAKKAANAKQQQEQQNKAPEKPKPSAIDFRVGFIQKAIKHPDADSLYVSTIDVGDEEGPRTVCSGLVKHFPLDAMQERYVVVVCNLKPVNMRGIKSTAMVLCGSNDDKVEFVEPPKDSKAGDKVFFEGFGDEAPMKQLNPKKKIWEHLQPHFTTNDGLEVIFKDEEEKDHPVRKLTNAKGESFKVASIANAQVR

The target in series [6] is T6, Arc1p dN (Saccharomyces cerevisiae, UniProt P46672 132-376, del1-131).
T6 sequence: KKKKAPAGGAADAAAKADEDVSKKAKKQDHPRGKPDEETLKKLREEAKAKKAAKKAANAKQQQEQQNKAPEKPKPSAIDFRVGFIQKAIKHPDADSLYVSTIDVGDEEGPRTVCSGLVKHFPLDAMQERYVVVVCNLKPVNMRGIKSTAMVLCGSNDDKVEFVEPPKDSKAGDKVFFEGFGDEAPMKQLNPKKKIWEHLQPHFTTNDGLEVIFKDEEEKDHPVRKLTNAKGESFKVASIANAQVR

What is called Kd is the concentration at which binding is half-saturated.

B1: tRNAIle WT (structured_RNA)
RNA: AGGCUUGUAGCUCAGGUGGUUAGAGCGCACCCCUGAUAAGGGUGAGGUCGGUGGUUCAAGUCCACUCAGGCCUACCA
Take B1: the Kd was 2980 ± 674 nM in series [1]; 1430 ± 379 nM in series [2]; 845 ± 149 nM in series [3]; 384 ± 48 nM in series [4]; 1280 ± 130 nM in series [5]; 321 ± 101 nM in series [6].
